Experimental findings from the Immune Epitope Database (IEDB) are described below.

For orientation: IC50 means the concentration that gives 50% inhibition.

The target of the first assay is HLA-A*02:01. Nature of the assay: IEDB peptide-MHC binding, purified MHC/competitive/radioactivity; ≥ and ≤ were set here for values at or beyond the usual limits of such assays. The following applies: source organism: Influenza A virus.
With QLMWALGENMA, the IC50 stood at 848 nM.
For FVEALARSI, the IC50 was determined as 1020 nM.

The assay is the same for the next values; noted with them: source organism: Mammarenavirus brazilense.
For ALTSLGLLYT, the IC50 was determined as 593 nM.
FQLIFFLTLA: the IC50 stood at 229 nM.
On to MVNHSTYYV, for which the IC50 is 27 nM.
Still for that read-out and setting: the figure for LTSLGLLYTV is 218 nM.

The assay is the same for the next values; noted with them: source organism: Mammarenavirus choriomeningitidis.
For YIACRTSIV, the IC50 was 46 nM.
For YLISIFLHLV, the IC50 stood at 5.8 nM.

The same assay, now with this note: source organism: Mammarenavirus juninense.
For FQFFVFLAL, the IC50 worked out at 675 nM.
With SLFLHLVGI, the IC50 turned out to be 1.5 nM.
On the same count and under the same terms, in the case of SLIAIIKGV it was 12 nM.

The same assay, now with this note: source organism: Mammarenavirus lassaense.
Turning to FVFSTSFYLI, the IC50 worked out at 329 nM.

The assay is the same for the next values; noted with them: source organism: Mammarenavirus machupoense.
Consider VLSYVIGLL, for which the IC50 was found to be 210 nM.
ALVAVSLIA: the IC50 turned out to be 3690 nM.

The assay is the same for the next values; noted with them: source organism: Mammarenavirus whitewaterense.
For the sequence YVSSIFLHL, the IC50 was found to be 157 nM.
Consider MIITAVNSL, for which the IC50 was 2430 nM.
GLTDLGLLYT: the IC50 stood at 102 nM.
Consider LLQFIVFLL, for which the IC50 was 159 nM.
Same read-out and setting: the figure for TLKSFFAWSL is 1340 nM.
GLLQFIVFLL: the IC50 is 242 nM.
On to FLLRGPFEA, for which the IC50 came out at 11 nM.

Still in this assay, the particulars now being: source organism: Vaccinia virus WR.
As for CLCSFHNDA, the IC50 was 4140 nM.
SMITMSAFLI: the IC50 amounted to 59 nM.
Regarding KMIPLLFIL, the IC50 came out at 2.9 nM.
With FTFTIYTDEV, the IC50 was determined as 352 nM.
With FIRYGDASLM, the IC50 worked out at 2360 nM.
On to SLTNEIYASI, for which the IC50 was determined as 161 nM.
On the same count and under the same terms, in the case of QLVDAIDNI it was 154 nM.
Regarding GMLFVNDLM, the IC50 is 467 nM.
On to YLPLSVFII, for which the IC50 came to 6.2 nM.
On the same count and under the same terms, in the case of AMIELCGAFL it was 0.78 nM; in that of FLEGALIANI, 30 nM; in that of FVFRSPFIV, 4.6 nM.
For HLPTMYDGL, the IC50 was 1090 nM.
Take ALMAITKNV: the IC50 was found to be 8.4 nM.
Still for that read-out and setting: the figure for FLDNECHTI is 0.78 nM; for KLDYWSFQL it is 2.1 nM; for FLTSVINRV it is 2.5 nM.
On the same count and under the same terms, the figure for KIIKKMEDMV is 2670 nM; for ILQISQCQRI it is 2600 nM.
For the sequence NLATSIYTI, the IC50 amounted to 1.2 nM.
Take KLNGAMVEYV: the IC50 stood at 6.1 nM.
In the case of LLSSVDYKNI, the IC50 amounted to 908 nM.
Same read-out and setting: the figure for SMITMSAFL is 20 nM; for SIEGELESL it is 3940 nM.
As to FILGIIITV, the IC50 amounted to 0.11 nM.
For the sequence KQDRSDGYFL, the IC50 worked out at 3910 nM.
For the sequence YTYAFTKKV, the IC50 stood at 16 nM.
Still for that read-out and setting: in the case of QIFEVYWYL it was 11 nM; in that of ELIKELTTL, 134 nM; in that of FLLIRYITT, 46 nM.
With LIVRYLIQV, the IC50 was 13 nM.
On to CTANSWNVI, for which the IC50 was 794 nM.
Still for that read-out and setting: in the case of STIDGRIVTL it was 736 nM.
Same read-out and setting: the figure for ILLLIGICVA is 683 nM; for MLVNRMQRI it is 48 nM.
For YLFNAIETM, the IC50 came out at 1.5 nM.
Still for that read-out and setting: in the case of IVSKLTFLDV it was 85 nM; in that of LLLWPLYVL, 0.21 nM; in that of SASVFYRGA, 2050 nM.
The same measure, in the same setting: in the case of VLPAVVYST it was 113 nM; in that of FQYLLPGFVL, 37 nM; in that of QAIMESDSFL, 67 nM.
For FLVGVAIILV, the IC50 amounted to 7.6 nM.
For the sequence LLYLILFLL, the IC50 was 2200 nM.
Regarding IVLYNGVNYL, the IC50 amounted to 225 nM.
For KLTDKKTFII, the IC50 is 4390 nM.
Take ELKETLLHV: the IC50 came to 4330 nM.
Consider LIVLFEVFV, for which the concentration for half-maximal inhibition (IC50) came to 1930 nM.
Same read-out and setting: in the case of FLTLLGIGCV it was 0.29 nM; in that of LLSLLVIWIL, 112 nM; in that of SISVVFSTNL, 2890 nM.
KLGNLLLLI: the IC50 was 0.43 nM.
Turning to MTPSPFYTV, the IC50 was determined as 6.4 nM.
For ALTIMGVIFL, the IC50 stood at 180 nM.
Still for that read-out and setting: the figure for ITLTNVVNI is 927 nM; for PLYEVNSTMT it is 3420 nM; for MITMSAFLIV it is 386 nM.
As to IVLFILKIFV, the IC50 came out at 271 nM.
The same measure, in the same setting: the figure for YIDALAKNA is 473 nM.
As to NIIDWQFAI, the IC50 turned out to be 5.4 nM.
Regarding YMNYYTTYI, the IC50 came out at 1.1 nM.
As to TVTNKEGVKI, the IC50 was 2880 nM.
FMLPKQDIV: the IC50 was 4.9 nM.
Take YLLDDVLYT: the IC50 was 1.3 nM.
For the sequence YLCTFMIIT, the IC50 is 87 nM.
Turning to SIINRDIIVI, the IC50 stood at 826 nM.
For the sequence VLDTTLYAV, the IC50 was determined as 0.6 nM.
For PAVVYSTCTV, the IC50 turned out to be 2310 nM.
As to YLFDYPHFEA, the IC50 came to 0.085 nM.
For TAIFTDASTV, the IC50 was determined as 4460 nM.
Still for that read-out and setting: in the case of FLSRVFFCV it was 0.81 nM; in that of FTISMRYQSL, 4300 nM.
Take WLTSILLSL: the IC50 is 1.2 nM.
Consider KLITFLFVI, for which the IC50 worked out at 15 nM.
For the sequence FILTAILFFM, the IC50 worked out at 0.12 nM.
FICWHSSEI: the IC50 worked out at 53 nM.
As for IVWEKKSLV, the IC50 was 2.1 nM.
LLPGFVLTCI: the IC50 was 3.7 nM.
Regarding EAAITDAAV, the IC50 came out at 2320 nM.
On the same count and under the same terms, in the case of LLVAPMPTA it was 13 nM; in that of LLSAINFKI, 0.54 nM; in that of GLNDYLHSV, 1.3 nM.
Same read-out and setting: in the case of FLKIKVTAA it was 52 nM; in that of VVSVDCNKEL, 2430 nM.
As to VIHDYICWL, the IC50 came to 12 nM.
Consider VTINNLKMML, for which the IC50 was 3060 nM.
In the case of GVLTIKAPNV, the IC50 is 3880 nM.
With KLSSYHVVSV, the IC50 was found to be 16 nM.
Take GLIIISIFL: the half-inhibitory concentration (IC50) is 72 nM.
Take FVFAWFNGV: the IC50 was found to be 0.38 nM.
Consider IIITCCLLSV, for which the IC50 amounted to 6.3 nM.
Consider KMEYNLYAEL, for which the IC50 was 297 nM.
On to LVFIKPPLI, for which the IC50 turned out to be 55 nM.
As for SIFGFQAEV, the IC50 was 0.54 nM.
As for NLFTFLHEI, the IC50 is 1.1 nM.
For LTDSLSSQM, the IC50 was 4270 nM.
In the case of GLCIRISMV, the IC50 is 216 nM.
On the same count and under the same terms, in the case of SLHSLSVETI it was 95 nM.
As for LISGSTFSI, the IC50 is 496 nM.
Take LLNLLLWPL: the IC50 stood at 0.073 nM.
For FLIDLAFLI, the IC50 is 0.041 nM.
On the same count and under the same terms, in the case of ILTREMGFL it was 2280 nM.
Take AIIPLSASV: the IC50 stood at 14 nM.
On to LVLGIALLYI, for which the IC50 is 6.7 nM.
As to VLDATNDGLI, the IC50 was 369 nM.
Take LMGTITLNA: the IC50 was 173 nM.
Consider TLTNVVNIST, for which the IC50 was 1240 nM.
For the sequence VVMAYVGIKL, the IC50 is 219 nM.
ILGMLFSDRV: the IC50 stood at 17 nM.
With SVEKIADDRI, the IC50 came out at 3830 nM.
In the case of FVFILTAIL, the IC50 was determined as 4.1 nM.
The same measure, in the same setting: the figure for SMTENVEEDL is 755 nM.
On to CQQKCDMPSL, for which the IC50 turned out to be 2370 nM.
For IMFKDDNII, the IC50 came out at 235 nM.
The same measure, in the same setting: the figure for ILMDNKGLGV is 1.3 nM.
Regarding YLSAKITTL, the IC50 was 5.5 nM.
Regarding KIFYKHIHKI, the IC50 amounted to 539 nM.
As for MLFVNDLMTM, the IC50 came to 51 nM.
IMEYHLLFA: the IC50 was 13 nM.
FLIPKGFYA: the IC50 was 0.82 nM.
Consider FLCLLMKLSI, for which the IC50 worked out at 2.1 nM.
On the same count and under the same terms, in the case of FLRGEAILQI it was 85 nM; in that of GLIACLIFV, 7.7 nM; in that of LLSLFSTLV, 12 nM.
For VLLDYGLHGL, the IC50 worked out at 1.3 nM.
Turning to PLLNIGIVL, the IC50 turned out to be 1420 nM.
MLLHVGIPL: the IC50 is 1.4 nM.
In the case of ILPVIFLSI, the IC50 is 0.66 nM.
With LVDICDRIV, the IC50 came to 2140 nM.
Regarding NIWAIIPLSA, the IC50 came out at 87 nM.
SVNIWAIIPL: the IC50 stood at 1120 nM.
Turning to TAYEINNEL, the IC50 turned out to be 925 nM.
Regarding VLSNTSTAV, the IC50 was determined as 16 nM.
Consider YMDLSYHGVT, for which the concentration for half-maximal inhibition (IC50) was determined as 85 nM.
Same read-out and setting: in the case of YLDFLLLLL it was 0.43 nM.
For the sequence KVTRFYFNM, the IC50 worked out at 95 nM.
Consider LLNPCLINV, for which the IC50 turned out to be 3.4 nM.
The same measure, in the same setting: in the case of RTCSNWVPL it was 4.9 nM; in that of CISQHQHLA, 449 nM; in that of ILMIFISSFL, 22 nM.
Turning to IIDKDTNSV, the IC50 was found to be 62 nM.
For FMIEGLMTSL, the half-maximal inhibitory concentration (IC50) was 0.2 nM.
In the case of ILWFFNAMVL, the IC50 turned out to be 11 nM.
As to WLLCKLSCA, the IC50 is 151 nM.
Still for that read-out and setting: in the case of GIYHDDLVV it was 2830 nM; in that of YVPGYSITT, 132 nM.
On to DASLMDMITL, for which the IC50 is 206 nM.
For the sequence NISTILYFT, the IC50 turned out to be 128 nM.
As for ALIANIHNHM, the IC50 is 118 nM.
LMSNIKTMMI: the IC50 is 1560 nM.
In the case of IIDFLEGAL, the IC50 turned out to be 919 nM.
On to SMLIEVILTA, for which the IC50 is 795 nM.
Turning to YINTHNEVGI, the IC50 was found to be 1640 nM.
With YLYETYHLI, the IC50 was 2.4 nM.
The same measure, in the same setting: the figure for YQLFSDAKA is 1790 nM; for ALLSRFFNM it is 0.61 nM.
With LLDLFGPEV, the IC50 came out at 6 nM.
Take FIDSNEYEV: the IC50 was 0.98 nM.
As for YVSTGESSIL, the IC50 was found to be 1360 nM.
For the sequence LVDNVDFATI, the IC50 was determined as 3670 nM.
Consider HIIIVALTIM, for which the IC50 worked out at 1670 nM.
The same measure, in the same setting: in the case of RTLLPILLL it was 307 nM; in that of YLYQPCDLL, 1.8 nM; in that of RLFSYNFTT, 0.23 nM.
Still for that read-out and setting: in the case of MMCYFLTATL it was 18 nM.
Consider FTLTGSPSST, for which the IC50 amounted to 4460 nM.
Turning to NTIDQTANV, the IC50 stood at 162 nM.
With MTPSPFYTVM, the IC50 came out at 1700 nM.
Consider ILRKIFYSV, for which the IC50 stood at 126 nM.
Same read-out and setting: in the case of NQLYLTVSFI it was 520 nM.
On to LLEIHQYPA, for which the IC50 was 98 nM.
RVETSPRPT: the IC50 stood at 1960 nM.
The same measure, in the same setting: the figure for DLLSYYVVYV is 0.45 nM.
